This series has as its target VvHSP24 (class B HSP/HSF, AtHSFB1 ortholog) (Vitis vinifera, UniProt A0ACM8QKQ1 1-286). Put plainly: EMSA; LightShift chemiluminescent EMSA kit (Pierce); buffer, salt, pH and temperature not stated; 200-fold mutant competitor. To be noted: protein: recombinant; tags: His (pCzn1); label: 5' biotin. For orientation: Mobility shift assays separate free from complexed probe on a gel.

We go through three molecules from article PMC7984168, “Heat Shock Protein HSP24 Is Involved in the BABA-Induced Resistance to Fungal Pathogen in Postharvest Grapes Underlying an NPR1-Dependent Manner”.

VvHSP24 (class B HSP/HSF, AtHSFB1 ortholog), sequence (A0ACM8QKQ1 entry or part of it): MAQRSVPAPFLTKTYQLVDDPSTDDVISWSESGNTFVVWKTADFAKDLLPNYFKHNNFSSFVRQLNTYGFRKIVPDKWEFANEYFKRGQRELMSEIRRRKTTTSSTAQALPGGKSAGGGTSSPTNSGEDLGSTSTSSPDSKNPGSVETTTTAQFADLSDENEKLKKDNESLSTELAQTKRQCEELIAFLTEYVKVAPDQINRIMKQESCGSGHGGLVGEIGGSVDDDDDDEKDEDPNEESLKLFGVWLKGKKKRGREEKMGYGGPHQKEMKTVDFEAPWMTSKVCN

B1: PR2 promoter HSE probe (dsDNA)
DNA 1: CATCTCAATATCAATATTTAAGAACTTTCTAATAAAATCATCCTTATCCGG
DNA 2: CCGGATAAGGATGATTTTATTAGAAAGTTCTTAAATATTGATATTGAGATG
For the molecule B1, the binding result is “no binding”.

B2: PR5 promoter HSE probe (dsDNA)
DNA 1: GGAACTGATTCCCTAAAACAGAAAAGAATGTATGAACCTTCCTAAAATAC
DNA 2: GTATTTTAGGAAGGTTCATACATTCTTTTCTGTTTTAGGGAATCAGTTCC
Regarding B2, the binding result is “no binding”.

B3: PR1 promoter HSE probe (dsDNA)
DNA 1: GGCCCGCATGAGTTACAACAAGAAGAAATTTCAAATATTGCTCTCCGTGG
DNA 2: CCACGGAGAGCAATATTTGAAATTTCTTCTTGTTGTAACTCATGCGGGCC
As for B3, the binding result is reported as “no binding”.
